Results published in patent publication CN112480260A (FUZHOU MAIXIN BIOTECHNOLOGY DEV CO LTD, dated 2021).

Molecular target: 重组PSMA蛋白片段 (human PSMA residues 307-750 with β2M and His tag, expressed in E. coli) (human, UniProt Q04609 307-750)
Assay: indirect ELISA, PSMA protein coated at 100 μg/ml, antibody titrated from 2000 to 0.625 ng/mL; affinity constant from the antibody concentration at half of the plateau OD

重组PSMA蛋白片段 (human PSMA residues 307-750 with β2M and His tag, expressed in E. coli), sequence (Q04609 307-750): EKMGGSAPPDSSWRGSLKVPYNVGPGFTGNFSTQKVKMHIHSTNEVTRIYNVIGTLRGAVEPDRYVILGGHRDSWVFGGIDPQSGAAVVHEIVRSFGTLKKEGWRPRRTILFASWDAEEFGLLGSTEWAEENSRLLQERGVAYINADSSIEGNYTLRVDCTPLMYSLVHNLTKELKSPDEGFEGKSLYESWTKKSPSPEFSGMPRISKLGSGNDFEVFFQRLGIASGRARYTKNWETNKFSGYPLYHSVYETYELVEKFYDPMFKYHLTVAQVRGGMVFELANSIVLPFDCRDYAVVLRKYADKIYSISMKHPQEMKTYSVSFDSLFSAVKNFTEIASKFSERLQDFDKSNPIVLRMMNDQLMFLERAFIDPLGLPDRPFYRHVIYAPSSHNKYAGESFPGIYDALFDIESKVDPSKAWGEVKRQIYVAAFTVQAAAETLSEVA

B1: 抗PSMA蛋白单克隆抗体(11D1E5E10) (antibody, V domains shown)
VH: QVQLQQSGPELARPGASVKMSCKASGYTFTSYTIHWVKQRPGQGLEWIGYISPSSGYTNYNQNFKDQATLTADISSSTAYMQLSSLTSEDSAVYYCARSGYRYDWYFDVWGAGTTVTVSS
VL: DIQMTQSPSSLSASLGGKVTITCKASQDINKYIAWYQHKPGKGPRLLIHYTSTLQPGIPSRFSGSGSGRDYSFSISNLEPEDIATYYCLQYDNLWTFGGGTKLEIK
notes: also called CGMCC NO.19683; PSMA单克隆抗体
- Ka: 4.96e+09 M⁻¹
